# Measured values: US11406618B2, “Polymer-des-ethyl sunitinib conjugates” (Nektar Therapeutics, priority 2010, dated 2022)
# Assay: Buffer hydrolysis in phosphate buffer to monitor the release of des-ethyl sunitinib
# Type: physicochemical
# Details: 100 mM phosphate, 37° C.
# Procedure: In a 10 mL round bottom flask was added (Z)—(N-(2-aminoethyl)-9-(hydroxymethyl)-9H-fluorene-2-carboxamide hydrochloride) ethyl(2-(5-((5-fluoro-2-oxoindolin-3-ylidene)methyl)-2,4-dimethyl-1H-pyrrole-3-carboxamido)ethyl)carbamate dihydrochloride (Compound 2a) (4.83 mg, 6.42 μmol). The solids were dissolved in anhydrous tetrahydrofuran (0.4 mL) and 1,4 dioxane (0.2 mL). mPEG-SPA 20K (100.4 mg, 5.02 μmol) was added. Anhydrous acetonitrile (0.2 mL) was added to dissolve the PEG. After the PEG dissolved, triethylamine (5.2 μL, 0.037 mmol) was added. At 1 hour, the reaction solvent was evaporated at reduced pressure to a dry solid. The product was redissolved in anhydrous acetonitrile (0.5 mL) and precipitated by slow addition of anhydrous IPA (8 mL total). The product was washed with anhydrous IPA (50 mL) and diethyl ether. Residual solvent was evaporated at reduced pressure. Yield was 75 mg yellow powder (75% yield). HPLC analysis was on C18 applying an acetonitrile gradient with 0.1% TFA; retention times were desethyl sunitinib (compound 1) 2.5 minutes and product at 10.7 minutes. Buffer hydrolysis was performed to monitor the release of des-ethyl sunitinib (100 mM phosphate, 37° C.): 36 days at pH 7.5, 3.6 days at pH 8.5.
# In a 10 mL round bottom flask was added Compound 2b (9.6 mg, 0.013 mmol). The solids were suspended in anhydrous acetonitrile (0.37 mL) and 1,4 dioxane (0.37 mL). mPEG-SPA 20K (181.3 mg, 9.07 μmol) was added. After the PEG dissolved, triethylamine (9.24 μL, 0.066 mmol) was added. At one hour, the product was precipitated by slow addition of anhydrous IPA (10 mL). The solid was washed with anhydrous IPA (25-30 mL) and then washed with diethyl ether. Residual solvent was evaporated at reduced pressure. Yield was ˜120 mg yellow powder. The product was transferred to a 50 mL round bottom flask. More Compound 2b (6.9 mg, 9.18 μmol) was added. Anhydrous acetonitrile (0.25 mL) and anhydrous 1,4 dioxane (0.25 mL) and anhydrous pyridine (2.2 μL, 0.027 mmol) were added. The reagents never fully dissolved, therefore triethylamine (6 μL, 0.043 mmol) was added. The solution was a clear orange color. After 45 minutes, the product was precipitated by slow addition of anhydrous IPA (˜10 mL). The solid was washed with anhydrous IPA (˜25-30 mL) and then washed with diethyl ether. Residual solvent was evaporated at reduced pressure. Yield was ˜68 mg (57%) yellow powder. HPLC analysis was on C18 applying an acetonitrile gradient with 0.1% TFA; retention times were desethyl sunitinib (compound 1) 2.5 min and product at 10.7 min. Buffer hydrolysis was performed to monitor the release of des-ethyl sunitinib (100 mM phosphate, 37° C.): 22 days at pH 7.5, 1.4 days at pH 8.5.
# Experiments were carried out to measure drug release from the polymer conjugates. A typical plot of the data showing the decay of the polymer conjugate (FIG. 1) and the build-up of drug with time (FIG. 2) are included.
# In a 10 mL round bottom flask was Compound 2c (7.4 mg, 7.69 μmol) was suspended in anhydrous dioxane (0.5 mL) and anhydrous acetonitrile (0.5 mL). mPEG-SPA 20K (100.0 mg, 5.0 μmol) was added. After the PEG dissolved, triethylamine (7.2 μL, 0.052 mmol) was added. At thirty minutes, anhydrous acetonitrile (0.5 mL) and anhydrous methanol (0.3 mL) were added. At two hours total reaction time, the product was precipitated by slow addition of anhydrous IPA containing 0.25% phosphoric acid. The product was washed with anhydrous IPA and then washed with diethyl ether. Residual solvent was evaporated at reduced pressure. Yield: 58 mg (58%) yellow powder. HPLC analysis employed a C18 column using an acetonitrile gradient with 0.1% TFA; retention times were des-ethyl sunitinib 2.5 min and product 10.7 minutes with 41% purity at 320 nm. Buffer hydrolysis was done to monitor the release of desethyl sunitinib (100 mM phosphate, 37° C.): 11 d at pH 7.5, 1.7 d at pH 8.5.
Substance,"Buffer hydrolysis, release of desethyl sunitinib at pH 7.5 (pH 7.5) [d]","Buffer hydrolysis, release of desethyl sunitinib at pH 8.5 (pH 8.5) [d]","Buffer hydrolysis, release of des-ethyl sunitinib at pH 7.5 (pH 7.5) [days]","Buffer hydrolysis, release of des-ethyl sunitinib at pH 8.5 (pH 8.5) [days]"
"(Z)-(9-(hydroxymethyl)-N2-(2-(2-(2-methoxyethoxy)ethoxy)ethyl)-N7-(2-β-(2-(mPEG 20,000))propanamido)ethyl)-9H-fluorene-2,7-dicarboxamide) ethyl(2-(5-((5-fluoro-2-oxoindolin-3-ylidene)methyl)-2,4-dimethyl-1H-pyrrole-3-carboxamido)ethyl)carbamate [Compound 3c]",11,1.7,–,–
"(Z)-(9-(hydroxymethyl)-N-(2-β-(mPEG 20,000)propanamido)ethyl)-9H-fluorene-2-carboxamide) ethyl(2-(5-((5-fluoro-2-oxoindolin-3-ylidene)methyl)-2,4-dimethyl-1H-pyrrole-3-carboxamido)ethyl)carbamate [Compound 3a]",–,–,36,3.6
"(Z)-(9-(hydroxymethyl)-N-(2-β-(mPEG 20,000)propanamido)ethyl)-9H-fluorene-4-carboxamide) ethyl(2-(5-((5-fluoro-2-oxoindolin-3-ylidene)methyl)-2,4-dimethyl-1H-pyrrole-3-carboxamido)ethyl)carbamate [Compound 3b]",–,–,22,1.4
